Measured values from patent publication US20230065153A1 (HIROSHIMA UNIVERSITY, published 2023).

Key:
[1] = target: T1, human integrin α10 (human, UniProt O75578 23-1167); test: FACS on human integrin α10 introduced CHO cells
T1 construct: whole, on cells
T1 sequence (looked up): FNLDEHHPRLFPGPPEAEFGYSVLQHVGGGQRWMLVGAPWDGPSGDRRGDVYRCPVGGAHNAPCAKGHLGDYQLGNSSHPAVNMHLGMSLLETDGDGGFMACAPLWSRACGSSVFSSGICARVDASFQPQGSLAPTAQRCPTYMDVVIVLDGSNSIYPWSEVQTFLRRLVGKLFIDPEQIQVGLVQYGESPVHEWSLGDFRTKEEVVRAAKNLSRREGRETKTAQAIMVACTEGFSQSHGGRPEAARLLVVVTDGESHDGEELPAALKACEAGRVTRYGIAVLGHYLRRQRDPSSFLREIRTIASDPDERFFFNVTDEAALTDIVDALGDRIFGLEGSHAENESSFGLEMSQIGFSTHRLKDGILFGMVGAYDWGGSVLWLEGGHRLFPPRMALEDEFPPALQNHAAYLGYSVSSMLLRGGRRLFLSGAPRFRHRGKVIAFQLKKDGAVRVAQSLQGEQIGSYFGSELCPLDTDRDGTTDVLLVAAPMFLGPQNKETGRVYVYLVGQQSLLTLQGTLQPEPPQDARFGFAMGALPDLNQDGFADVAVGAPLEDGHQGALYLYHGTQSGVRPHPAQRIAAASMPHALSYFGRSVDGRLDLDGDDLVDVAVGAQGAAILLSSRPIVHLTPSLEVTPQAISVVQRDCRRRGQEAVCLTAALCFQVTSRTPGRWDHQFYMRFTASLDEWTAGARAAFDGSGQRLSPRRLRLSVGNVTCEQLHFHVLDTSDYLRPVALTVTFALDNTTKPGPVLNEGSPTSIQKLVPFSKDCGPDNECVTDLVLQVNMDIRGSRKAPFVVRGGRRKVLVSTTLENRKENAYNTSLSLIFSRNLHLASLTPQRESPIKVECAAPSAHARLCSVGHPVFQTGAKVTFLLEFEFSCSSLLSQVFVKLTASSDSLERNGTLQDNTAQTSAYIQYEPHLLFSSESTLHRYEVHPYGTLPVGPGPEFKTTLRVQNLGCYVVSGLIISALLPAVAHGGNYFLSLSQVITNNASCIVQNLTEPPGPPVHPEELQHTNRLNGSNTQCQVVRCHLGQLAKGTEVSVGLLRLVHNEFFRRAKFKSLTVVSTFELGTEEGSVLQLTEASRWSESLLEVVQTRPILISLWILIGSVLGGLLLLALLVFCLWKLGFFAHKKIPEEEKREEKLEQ
Experimental: (§1) Reactivity (specificity) with respect to α11 in the antibody which has been converted into IgG was analyzed based on presence or absence of reactivity with respect to other collagen binding integrins α1, α2, and α10. First, reactivity of the antibody with respect to the CHO cell and the human integrin α11 introduced CHO cell was analyzed by FACS. Subsequently, reactivity of the antibody with respect to a human colorectal carcinoma cell line (SW480 cell: cell line expressing endogenous α1 and α2) and a human integrin α10 introduced CHO cell was analyzed by FACS. The reaction conditions of FACS using the IgG antibody are as follows. That is, the antibody as a primary antibody was added to a cell at a concentration of 5 μg/ml to react with the cell on ice for 25 minutes. After washing, PE labeled anti-mouse IgG antibody as a secondary antibody was added to the cell at a concentration of 2 μg/ml to react with the cell on ice for 15 minutes. The subsequent FACS processes were carried out under the same conditions.

[2] = target: T2, integrin α1 (endogenous on human colorectal carcinoma SW480 cells) (human, UniProt P56199 29-1179); test: FACS on SW480 cells expressing endogenous α1 and α2
T2 construct: whole, on cells
T2 sequence (looked up): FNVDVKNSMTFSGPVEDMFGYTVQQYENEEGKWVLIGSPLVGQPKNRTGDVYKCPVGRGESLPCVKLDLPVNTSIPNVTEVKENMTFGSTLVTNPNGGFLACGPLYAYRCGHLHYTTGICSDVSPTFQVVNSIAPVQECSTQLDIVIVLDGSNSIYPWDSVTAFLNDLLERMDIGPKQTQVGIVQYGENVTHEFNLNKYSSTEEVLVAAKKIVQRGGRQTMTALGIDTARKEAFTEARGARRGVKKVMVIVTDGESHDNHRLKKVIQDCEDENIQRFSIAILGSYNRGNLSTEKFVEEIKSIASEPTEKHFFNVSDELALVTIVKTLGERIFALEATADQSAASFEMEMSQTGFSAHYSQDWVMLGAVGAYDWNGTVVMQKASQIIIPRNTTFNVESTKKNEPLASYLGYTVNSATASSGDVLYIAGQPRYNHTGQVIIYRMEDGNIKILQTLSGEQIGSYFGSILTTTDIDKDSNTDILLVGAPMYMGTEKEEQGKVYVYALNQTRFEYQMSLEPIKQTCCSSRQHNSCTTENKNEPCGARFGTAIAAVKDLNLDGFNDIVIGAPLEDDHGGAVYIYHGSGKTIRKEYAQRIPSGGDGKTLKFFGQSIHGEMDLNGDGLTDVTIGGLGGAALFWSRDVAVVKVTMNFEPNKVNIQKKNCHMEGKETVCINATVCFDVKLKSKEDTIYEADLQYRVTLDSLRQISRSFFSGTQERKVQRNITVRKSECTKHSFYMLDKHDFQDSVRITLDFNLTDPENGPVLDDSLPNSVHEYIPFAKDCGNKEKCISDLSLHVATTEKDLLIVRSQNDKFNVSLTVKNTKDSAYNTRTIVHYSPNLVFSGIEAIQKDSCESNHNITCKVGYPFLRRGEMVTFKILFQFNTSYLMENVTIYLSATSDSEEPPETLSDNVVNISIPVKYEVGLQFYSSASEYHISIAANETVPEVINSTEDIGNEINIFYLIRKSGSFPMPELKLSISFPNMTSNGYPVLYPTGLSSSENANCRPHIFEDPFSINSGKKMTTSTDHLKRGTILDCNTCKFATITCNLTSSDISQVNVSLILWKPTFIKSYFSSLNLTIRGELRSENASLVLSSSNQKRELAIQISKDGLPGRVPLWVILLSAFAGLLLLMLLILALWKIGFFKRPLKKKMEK
Experimental: as §1

[3] = target: T3, integrin α2 (endogenous on human colorectal carcinoma SW480 cells) (human, UniProt P17301 30-1181); test: as above
T3 construct: whole, on cells
T3 sequence (looked up): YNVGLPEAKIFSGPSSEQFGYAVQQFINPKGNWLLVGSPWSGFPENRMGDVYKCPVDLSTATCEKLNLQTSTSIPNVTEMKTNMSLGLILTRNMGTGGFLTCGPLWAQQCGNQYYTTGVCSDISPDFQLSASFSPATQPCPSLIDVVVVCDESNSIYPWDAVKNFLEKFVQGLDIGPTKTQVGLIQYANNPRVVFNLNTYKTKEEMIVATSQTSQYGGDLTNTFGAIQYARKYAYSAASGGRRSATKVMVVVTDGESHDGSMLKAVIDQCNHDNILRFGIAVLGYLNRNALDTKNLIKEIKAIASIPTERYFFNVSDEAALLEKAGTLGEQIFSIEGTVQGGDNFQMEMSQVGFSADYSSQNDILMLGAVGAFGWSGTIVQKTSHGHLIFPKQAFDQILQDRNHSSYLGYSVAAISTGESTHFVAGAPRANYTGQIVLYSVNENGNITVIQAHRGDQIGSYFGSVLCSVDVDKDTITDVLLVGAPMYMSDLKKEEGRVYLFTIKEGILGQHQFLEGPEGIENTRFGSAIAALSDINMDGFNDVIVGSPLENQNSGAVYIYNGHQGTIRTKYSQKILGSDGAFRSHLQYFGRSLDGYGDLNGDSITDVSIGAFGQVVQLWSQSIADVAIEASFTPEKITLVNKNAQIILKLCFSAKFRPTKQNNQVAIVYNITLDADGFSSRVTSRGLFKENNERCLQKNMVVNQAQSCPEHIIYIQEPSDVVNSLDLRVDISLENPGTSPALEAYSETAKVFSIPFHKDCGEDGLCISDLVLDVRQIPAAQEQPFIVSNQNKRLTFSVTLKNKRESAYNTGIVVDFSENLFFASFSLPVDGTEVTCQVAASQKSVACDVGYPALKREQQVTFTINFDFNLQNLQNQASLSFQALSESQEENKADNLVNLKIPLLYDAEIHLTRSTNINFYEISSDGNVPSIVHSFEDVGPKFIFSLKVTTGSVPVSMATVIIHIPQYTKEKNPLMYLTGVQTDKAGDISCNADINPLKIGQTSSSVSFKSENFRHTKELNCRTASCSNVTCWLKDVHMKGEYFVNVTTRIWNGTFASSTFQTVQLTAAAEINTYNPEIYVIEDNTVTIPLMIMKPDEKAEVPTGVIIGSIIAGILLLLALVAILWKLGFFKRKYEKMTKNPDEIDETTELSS
Experimental: as §1

Measured: binding result

B1: wild-type #33 IgG (anti-integrin α11 monoclonal antibody, chicken-mouse chimeric IgG1) (antibody, V domains shown)
VH: AVTLDESGGGLQTPGGALSLVCKGSGFTFSSYGMQWVRQAPGRGLEWVAGIDDDGSFTLYGAAVDGRATISRDNGQTTVRLQLSDLRAEDTATYFCAKGGYGYCWYGDAACIDAWGHGTEVIVSS
VL: AVTQPSSVSANPGETVKITCSGGSDSWYGWYQQKSPGSAPVTVIYSNNQRPSNIPSRFSGSTSGSTSTLTITGVQADDEAVYFCGSRDSSYDGIFGAGTTLTVLK
notes: Chicken VH linked to a mouse IgG1 constant region and chicken VL linked to a mouse Igκ region; His-tagged at the C-terminal; also called the antibody
no binding (tested: 5 µg/ml): all assays above
